Tests used:
[1] = Soluble aggregates of transiently expressed antibodies; type: physicochemical; settings: Protein A purified antibody
Text: The protein yield of these antibodies, their levels of soluble aggregates and their binding affinity to the immunogen (J1-DE3) are illustrated in (Table 6).

[2] = target: T1, N1 binding to cell surface expressed hJ1 (Homo sapiens, UniProt P78504); experiment: Notch binding blocking assay (FACS): N1 EGF11-13 beads staining human J1-expressing cells; parameters: key: +: Complete blocking; X: No blocking
T1 construct: cell expressed full length human J1 (hJ1; HEK293 transfectants); expressed in transfected cells; host or cells: HEK293
T1 sequence (P78504 34-1218): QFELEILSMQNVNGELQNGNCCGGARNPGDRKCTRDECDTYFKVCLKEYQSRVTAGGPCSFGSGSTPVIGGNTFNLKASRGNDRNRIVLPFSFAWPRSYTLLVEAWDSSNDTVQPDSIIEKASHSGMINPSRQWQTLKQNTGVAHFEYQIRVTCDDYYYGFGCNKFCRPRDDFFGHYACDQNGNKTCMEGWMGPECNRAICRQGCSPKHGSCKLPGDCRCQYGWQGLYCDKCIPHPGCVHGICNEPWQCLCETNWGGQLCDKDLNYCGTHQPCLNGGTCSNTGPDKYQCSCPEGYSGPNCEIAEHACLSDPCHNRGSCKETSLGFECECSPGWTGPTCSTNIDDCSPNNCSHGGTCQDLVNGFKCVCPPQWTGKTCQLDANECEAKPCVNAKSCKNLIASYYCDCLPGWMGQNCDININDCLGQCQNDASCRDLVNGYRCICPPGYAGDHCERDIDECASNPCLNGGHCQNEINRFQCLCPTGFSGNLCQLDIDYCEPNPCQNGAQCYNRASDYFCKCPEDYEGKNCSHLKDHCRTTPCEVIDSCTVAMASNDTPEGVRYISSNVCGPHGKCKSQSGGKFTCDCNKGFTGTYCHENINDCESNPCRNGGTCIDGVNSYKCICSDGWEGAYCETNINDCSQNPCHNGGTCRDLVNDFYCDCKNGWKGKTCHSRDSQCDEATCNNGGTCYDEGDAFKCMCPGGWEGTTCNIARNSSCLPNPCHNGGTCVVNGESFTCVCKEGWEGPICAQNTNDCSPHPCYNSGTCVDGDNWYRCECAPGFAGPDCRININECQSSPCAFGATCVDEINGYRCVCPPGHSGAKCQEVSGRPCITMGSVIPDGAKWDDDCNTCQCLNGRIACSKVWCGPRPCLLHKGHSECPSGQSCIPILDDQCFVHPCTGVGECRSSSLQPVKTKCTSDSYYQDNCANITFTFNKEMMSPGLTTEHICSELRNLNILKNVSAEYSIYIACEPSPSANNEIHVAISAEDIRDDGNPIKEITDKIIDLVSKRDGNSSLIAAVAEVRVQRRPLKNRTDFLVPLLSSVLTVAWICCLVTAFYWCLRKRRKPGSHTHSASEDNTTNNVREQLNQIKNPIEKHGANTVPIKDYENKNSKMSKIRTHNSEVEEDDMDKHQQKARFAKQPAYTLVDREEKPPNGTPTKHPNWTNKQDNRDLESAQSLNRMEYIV
Protocol: To functionally identify mAbs with the capacity to disrupt the J1-N1 protein:protein interaction, hybridoma culture supernatants were tested in a FACS-based binding assay. Biotinylated soluble human N1 EGF11-13 recombinant protein was bound to avidin-coated beads and used to stain J1-expressing cells in the presence or absence of each mAb that recognised cell surface hJ1 by FACS. […] The four blocking antibodies of the invention were also able to block the binding of recombinant […] to a biotin-tagged J1 DSL-EGF3 recombinant protein in an ELISA assay (FIG. 1B). […] The four blocking mAbs of the invention were purified from serum-free culture supernatants and equal concentrations of purified antibodies were used to compare their activity in subsequent assays (unless hybridoma supernatant was specified). Sequence conservation across the DSL domain raised the possibility that the J1 mAbs may also be able to bind the Jagged 2 (J2) protein. Antibody binding specificity was initially tested by immunocytochemical labelling of cytospin samples of hJ1 and hJ2 transfectants (FIG. 2). All antibodies stained J1 transfectants but none stained the J2 transfected cells, and J2 expression in the same experiment was confirmed using a commercial anti-J2 antibody. The specificity of the purified mAbs was further investigated in mammalian cells transfected with hJ2, human Delta-like ligand 4 (hDLL4), or mJ1 (FIG. 3). Transfectants were FACS stained with 10 μg/ml of each of the four blocking mAbs.
To test the blocking efficiencies of the J1 mAbs, purified mAbs were titrated to determine the concentration required to block recombinant N1 binding to cell surface expressed hJ1. Beads coated with a bacterially-expressed N1 EGF11-13 protein were used to stain the hJ1-expressing cells in the presence of various concentrations of mAbs.
The FACS-based binding assay using biotinylated soluble human N1 EGF11-13 recombinant protein bound to avidin-coated fluorescent beads to stain J1-expressing cells was performed using a dilution series of each variant mAb to test their ability to block J1 binding to N1 by FACS (Table 7). […] Thus 12/16 J1-65D1 variants V1-12 and all J1-183D variants have the desired binding and blocking activity.
Human N1 EGF11-13 (411-526) was expressed in E. coli, refolded in vitro and labelled with purple fluorescent avidin-coated beads (Spherotech) as previously described. HEK293 cells transfected with human J1 or B16F10 cells transfected with mouse J1 were stained with N1 fluorescent beads in the presence of J1 antibody supernatants or purified antibody (murine, chimeric or humanised) diluted in HBBS/10% FCS. Cells were washed and re-suspended in staining buffer before being analysed with a FACSCalibur and data analysis with CellQuest. HEK293 cells transfected with human Jagged 2 and B16F10 cells transfected with human and mouse DLL4 were stained similarly to test blocking specificity.

[3] = final antibody concentration 0.2 μg/ml
[4] = final antibody concentration 0.4 μg/ml
[5] = final antibody concentration 0.6 μg/ml
[6] = final antibody concentration 1.0 μg/ml

Blocking of Notch1 binding to cell surface Jagged 1 [2, 3]	Blocking of Notch1 binding to cell surface Jagged 1 [2, 4]	Blocking of Notch1 binding to cell surface Jagged 1 [2, 5]	Blocking of Notch1 binding to cell surface Jagged 1 [2, 6]	Molecule	% soluble aggregate [1] [%]
X	+ (Complete blocking)	+ (Complete blocking)	+ (Complete blocking)	J1-183D variant 3: humanised/de-immunised J1-183D: J1-183D_VL_1 + J1-183D_VH_3 (antibody, V domains shown) VH: QVQLVQSGAELKKPGASVKVSCKVSGYAFTDYAIHWVRQAPGQGLEWMGIINTYYGDSKYAQKFQGRVTMTVDTSTSTAYMELSSLRSEDTAVYYCARGYDGFAYWGQGTLVTVSSASTKGP VL: DIQMTQSPSSLSASVGDRVTITCRTSENIYSYLTWYQQKPGKAPKLLVYNAKILAAGVPSRFSGSGSGTDFTLTISSLQPEDFATYYCQHHYDIPWTFGGGTKLEIKRT	2.87
X	+ (Complete blocking)	+ (Complete blocking)	+ (Complete blocking)	J1-183D variant 5: humanised/de-immunised J1-183D: J1-183D_VL_2 + J1-183D_VH_1 (antibody, V domains shown) VH: QVQLVQSGAELKKPGASVKVSCKVSGYAFTDYAIHWIRQAPGQGLEWMGIINTYYGDSKYNQKFKDRVTMTVDKSTSTAYMELSSLRSEDTAVYYCARGYDGFAYWGQGTLVTVSSASTKGP VL: DIQMTQSPSSLSASVGDRVTITCRTSENIYSYLTWYQQKPGKAPKLLIYNAKTLASGVPSRFSGSGSGTDFTLTISSLQPEDFATYYCQHHYDIPWTFGGGTKLEIKRT	4.38
X	+ (Complete blocking)	+ (Complete blocking)	+ (Complete blocking)	J1-183D variant 7: humanised/de-immunised J1-183D: J1-183D_VL_2 + J1-183D_VH_3 (antibody, V domains shown) VH: QVQLVQSGAELKKPGASVKVSCKVSGYAFTDYAIHWVRQAPGQGLEWMGIINTYYGDSKYAQKFQGRVTMTVDTSTSTAYMELSSLRSEDTAVYYCARGYDGFAYWGQGTLVTVSSASTKGP VL: DIQMTQSPSSLSASVGDRVTITCRTSENIYSYLTWYQQKPGKAPKLLIYNAKTLASGVPSRFSGSGSGTDFTLTISSLQPEDFATYYCQHHYDIPWTFGGGTKLEIKRT	3.92
X	+ (Complete blocking)	+ (Complete blocking)	+ (Complete blocking)	J1-183D variant 14: humanised/de-immunised J1-183D: J1-183D_VL_4 + J1-183D_VH_2 (antibody, V domains shown) VH: QVQLVQSGAELKKPGASVKVSCKVSGYAFTDYAIHWIRQAPGQGLEWMGIINTYYGDSKYAQKFQGRVTMTVDTSTSTAYMELSSLRSEDTAVYYCARGYDGFAYWGQGTLVTVSSASTKGP VL: DIQMTQSPSSLSASVGDRVTITCRTSENIYSYLTWYQQKPGKAPKLLIYHAKILDSGVPSRFSGSGSGTDFTLTISSLQPEDFATYYCQHHYDIPWTFGGGTKLEIKRT	3.02
X	+ (Complete blocking)	+ (Complete blocking)	+ (Complete blocking)	J1-183D variant 10: humanised/de-immunised J1-183D: J1-183D_VL_3 + J1-183D_VH_2 (antibody, V domains shown) VH: QVQLVQSGAELKKPGASVKVSCKVSGYAFTDYAIHWIRQAPGQGLEWMGIINTYYGDSKYAQKFQGRVTMTVDTSTSTAYMELSSLRSEDTAVYYCARGYDGFAYWGQGTLVTVSSASTKGP VL: DIQMTQSPSSLSASVGDRVTITCRTSENIYSYLTWYQQKPGKAPKLLIYNAKILDSGVPSRFSGSGSGTDFTLTISSLQPEDFATYYCQHHYDIPWTFGGGTKLEIKRT	2.89
X	+ (Complete blocking)	+ (Complete blocking)	+ (Complete blocking)	J1-183D variant 4: humanised/de-immunised J1-183D: J1-183D_VL_1 + J1-183D_VH_4 (antibody, V domains shown) VH: QVQLVQSGAEVKKPGASVKVSCKASGYTFTDYAIHWVRQAPGQGLEWMGIINTYYGDSKYAQKFQGRVTMTVDTSTSTAYMELSSLRSEDTAVYYCARGYDGFAYWGQGTLVTVSSASTKGP VL: DIQMTQSPSSLSASVGDRVTITCRTSENIYSYLTWYQQKPGKAPKLLVYNAKILAAGVPSRFSGSGSGTDFTLTISSLQPEDFATYYCQHHYDIPWTFGGGTKLEIKRT	0.85
X	+ (Complete blocking)	+ (Complete blocking)	+ (Complete blocking)	J1-183D variant 13: humanised/de-immunised J1-183D: J1-183D_VL_4 + J1-183D_VH_1 (antibody, V domains shown) VH: QVQLVQSGAELKKPGASVKVSCKVSGYAFTDYAIHWIRQAPGQGLEWMGIINTYYGDSKYNQKFKDRVTMTVDKSTSTAYMELSSLRSEDTAVYYCARGYDGFAYWGQGTLVTVSSASTKGP VL: DIQMTQSPSSLSASVGDRVTITCRTSENIYSYLTWYQQKPGKAPKLLIYHAKILDSGVPSRFSGSGSGTDFTLTISSLQPEDFATYYCQHHYDIPWTFGGGTKLEIKRT	3.43
X	+ (Complete blocking)	+ (Complete blocking)	+ (Complete blocking)	J1-183D variant 11: humanised/de-immunised J1-183D: J1-183D_VL_3 + J1-183D_VH_3 (antibody, V domains shown) VH: QVQLVQSGAELKKPGASVKVSCKVSGYAFTDYAIHWVRQAPGQGLEWMGIINTYYGDSKYAQKFQGRVTMTVDTSTSTAYMELSSLRSEDTAVYYCARGYDGFAYWGQGTLVTVSSASTKGP VL: DIQMTQSPSSLSASVGDRVTITCRTSENIYSYLTWYQQKPGKAPKLLIYNAKILDSGVPSRFSGSGSGTDFTLTISSLQPEDFATYYCQHHYDIPWTFGGGTKLEIKRT	2.5
X	+ (Complete blocking)	+ (Complete blocking)	+ (Complete blocking)	J1-183D variant 6: humanised/de-immunised J1-183D: J1-183D_VL_2 + J1-183D_VH_2 (antibody, V domains shown) VH: QVQLVQSGAELKKPGASVKVSCKVSGYAFTDYAIHWIRQAPGQGLEWMGIINTYYGDSKYAQKFQGRVTMTVDTSTSTAYMELSSLRSEDTAVYYCARGYDGFAYWGQGTLVTVSSASTKGP VL: DIQMTQSPSSLSASVGDRVTITCRTSENIYSYLTWYQQKPGKAPKLLIYNAKTLASGVPSRFSGSGSGTDFTLTISSLQPEDFATYYCQHHYDIPWTFGGGTKLEIKRT	4.6

Source: patent publication US9725518B2, “Antibodies that bind to Jagged 1” (Cancer Research Technology Limited, priority 2013, dated 2017)
